Laboratory results taken from patent publication US20200317768A1 (published 2020).
Numbering of substitutions follows the chain as printed. Numbers in names are those of the source.

B1: M103205H795-MY440 / M103202L889-SK1 (antibody, human IgG1, kappa)
heavy: QVTLKESGPVLVKPTETLTLTCTVSGIDLSHDDISWVRQAPGKGLEWVGIISYAGSTYYASWAKGRLTISKDTSKNQVVLTMTNMDPVDTATYYCARGVPAYSHGGDLWGQGTLVTVSSASTKGPSVFPLAPSSKSTSGGTAALGCLVKDYFPEPVTVSWNSGALTSGVHTFPAVLQSSGLYSLSSVVTVPSSSLGTQTYICNVNHKPSNTKVDKKVEPKSCDKTHTCPPCPAPELWNGPSVFLFPPKPKDTLMISRTPEVTCVVVDVSDEDPEVKFNWYVDGVEVHNAKTKPREELYNSTYRVVSVLTVLHQDWLNGKEYKCKVSNKALPKPIEKTISKAKGQPREPQVYTLPPSREEMTKNQVSLTCLVKGFYPSDIAVEWESNGQPENNYKTTPPVLDSDGSFFLYSKLTVDKSRWQQGNVFSCSVMHEALHNHYTQKSLSLSP
light: DIVMTQSPATLSLSPGERATLSCTSSQSVYHANWLSWFQQKPGQPPKLLIYWASTLAYGVPSRFSGSGSGTDFTLTISSLQPEDAATYYCAGGYGGGRYAFGQGTKVEIKRTVAAPSVFIFPPSDEQLKSGTASVVCLLNNFYPREAKVQWKVDNALQSGNSQESVTEQDSKDSTYSLSSTLTLSKADYEKHKVYACEVTHQGLSSPVTKSFNRGEC
notes: Fc variant of M103205H795-SG1, expressed with M103202L889-SK1 as light chain
B2: M103205H795-MY538 (Table 19; L235W/G236N/H268D/Q295L/K326T/A330K) / M103202L889-SK1 (antibody, human IgG1, kappa)
heavy: B1 heavy with K328T
light: B1 light
notes: Fc variant of M103205H795-SG1, expressed with M103202L889-SK1; the text names MY518 for this set of substitutions; also called probably MY518 of the text

Experiments:
Assay in all cases: SPR (Biacore); KD of SG1 divided by KD of the variant for this FcgR;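 also: relative to parent M103205H795-SG1 carrying the SG1 human heavy chain constant region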
[1] = biological target: T1, human FcγRIIaH extracellular domain with C-terminal His-tag (human, UniProt P12318 34-217)
T1 construct: Expressed in FreeStyle 293 cells and purified; also called human FcγRIIa (type H); FcgRIIaH; not shown: C-terminal His-tag
T1 sequence: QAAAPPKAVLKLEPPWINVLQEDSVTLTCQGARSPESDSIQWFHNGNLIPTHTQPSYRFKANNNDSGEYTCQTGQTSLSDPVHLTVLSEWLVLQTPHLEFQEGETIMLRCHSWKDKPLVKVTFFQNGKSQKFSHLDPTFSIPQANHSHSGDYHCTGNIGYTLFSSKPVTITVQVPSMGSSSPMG

[2] = biological target: T2, cynomolgus monkey FcγRIIIaS extracellular domain with C-terminal His-tag (cynomolgus monkey, UniProt Q8SPW2 21-206 at identity 1.00))
T2 construct: Expressed in FreeStyle 293 cells and purified; also called cyno FcγRIIIaS; cynoFcγRIIIaS; not shown: C-terminal His-tag
T2 chain: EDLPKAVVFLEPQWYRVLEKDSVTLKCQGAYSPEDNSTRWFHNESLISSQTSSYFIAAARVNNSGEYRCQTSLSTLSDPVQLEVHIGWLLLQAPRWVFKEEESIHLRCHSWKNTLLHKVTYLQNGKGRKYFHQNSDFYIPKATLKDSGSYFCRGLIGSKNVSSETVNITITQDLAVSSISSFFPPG

[3] = biological target: T3, human FcγRIIb extracellular domain with C-terminal His-tag (human, UniProt P31994 43-217)
T3 construct: Expressed in FreeStyle 293 cells and purified; also called humanFcgRIIb; not shown: C-terminal His-tag
T3 sequence: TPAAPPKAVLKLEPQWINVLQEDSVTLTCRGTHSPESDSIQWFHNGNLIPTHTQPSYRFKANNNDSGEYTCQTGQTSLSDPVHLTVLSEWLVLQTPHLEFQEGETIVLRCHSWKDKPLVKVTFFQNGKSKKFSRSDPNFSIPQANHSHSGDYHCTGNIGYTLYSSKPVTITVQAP

[4] = biological target: T4, cynomolgus monkey FcγRIIa3 extracellular domain with C-terminal His-tag (cynomolgus monkey)
T4 construct: Expressed in FreeStyle 293 cells and purified; also called cyno FcγRIIa3; cynoFcgRIIa3; not shown: C-terminal His-tag
T4 chain: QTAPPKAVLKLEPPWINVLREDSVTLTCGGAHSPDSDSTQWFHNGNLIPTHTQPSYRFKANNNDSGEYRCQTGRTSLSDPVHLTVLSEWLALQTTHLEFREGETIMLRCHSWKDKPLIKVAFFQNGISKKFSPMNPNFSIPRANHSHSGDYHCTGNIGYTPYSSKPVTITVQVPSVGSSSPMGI

[5] = biological target: T5, human FcγRIIIaV extracellular domain with C-terminal His-tag (human, UniProt P08637 17-208)
T5 construct: Expressed in FreeStyle 293 cells and purified; also called FcgRIIIaV; not shown: C-terminal His-tag
T5 sequence (P08637 17-208 F176V): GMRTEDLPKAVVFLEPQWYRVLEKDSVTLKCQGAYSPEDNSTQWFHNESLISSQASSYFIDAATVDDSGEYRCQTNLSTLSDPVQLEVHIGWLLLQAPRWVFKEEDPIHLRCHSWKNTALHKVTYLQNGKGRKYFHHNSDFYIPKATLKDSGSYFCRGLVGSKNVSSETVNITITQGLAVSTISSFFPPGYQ

[6] = biological target: T6, cynomolgus monkey FcγRIIa2 extracellular domain with C-terminal His-tag (cynomolgus monkey)
T6 construct: Expressed in FreeStyle 293 cells and purified; also called cyno FcγRIIa2; cynoFcgRIIa2; not shown: C-terminal His-tag
T6 chain: T4 chain with I127K, K130N, P133H, R142Q

[7] = biological target: T7, human FcγRIIaR extracellular domain with C-terminal His-tag (human, UniProt P12318 34-217)
T7 construct: Expressed in FreeStyle 293 cells and purified; also called human FcγRIIa (type R); FcgRIIaR; not shown: C-terminal His-tag
T7 chain: T1 sequence with H134R

[8] = biological target: T8, cynomolgus monkey FcγRIIa1 extracellular domain with C-terminal His-tag (cynomolgus monkey)
T8 construct: Expressed in FreeStyle 293 cells and purified; also called cyno FcγRIIa1; cynoFcgRIIa1; not shown: C-terminal His-tag
T8 chain: T4 chain with T95P, A121T, S128A, P133H, N135D

[9] = biological target: T9, cynomolgus monkey FcγRIIb extracellular domain with C-terminal His-tag (cynomolgus monkey)
T9 construct: Expressed in FreeStyle 293 cells and purified; also called cyno FcγRIIb; cynoFcγRIIb; not shown: C-terminal His-tag
T9 chain: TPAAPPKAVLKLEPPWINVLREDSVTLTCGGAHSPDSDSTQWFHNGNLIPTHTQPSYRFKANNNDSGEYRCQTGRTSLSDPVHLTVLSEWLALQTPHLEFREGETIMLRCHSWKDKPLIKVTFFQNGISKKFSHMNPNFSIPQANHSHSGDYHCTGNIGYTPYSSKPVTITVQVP

Row | Binder | KD fold (SG1 = 1) [1] [fold] | KD fold (SG1 = 1) [2] [fold] | KD fold (SG1 = 1) [3] [fold] | KD fold (SG1 = 1) [4] [fold] | KD fold (SG1 = 1) [5] [fold] | KD fold (SG1 = 1) [6] [fold] | KD fold (SG1 = 1) [7] [fold] | KD fold (SG1 = 1) [8] [fold] | KD fold (SG1 = 1) [9] [fold]
1 | B1 | 0.8 | 0.04 | 5.8 | 3.5 | 0.05 | 2.8 | 1 | 2 | 5.9
2 | B2 | 0.8 | 0.09 | 9.6 | 7.1 | 0.04 | 5.7 | 1.6 | 3.6 | 6.9
